# Measured values reported in US7754216B2, “Method of treating multiple sclerosis with anti-K6 antibody” (Mayo Foundation for Medical Education and Research, priority 2002, dated 2010).
# What was measured:
# K6 mRNA in spinal cord = K6 mRNA in spinal cord after kainic acid excitotoxic injury; type: in vivo, rat; conditions: three days after intraperitoneal KA
# Description: Levels of K6 mRNA in adult rat spinal cord were increased in both white and gray matter following kainic acid (KA)-induced excitotoxic injury. Dark-field photomicrographs (FIG. 1) show the autoradiographic localization of K6 mRNA in a transverse section through the spinal cord of a control rat, and in parallel sections of paired experimental rats at 3 and 7 days after intraperitoneal injection of KA. By three days after KA treatment, K6 mRNA was 2-fold higher in the white matter and 1.5-fold higher in the dorsal horn (DH) and ventral horn (VH) of the spinal cord gray matter, compared to controls (P<0.05).
# [1] = molecular target: rat myelin basic protein (MBP) (UniProt P02688)
# [2] = molecular target: T1, recombinant rat myelin oligodendrocyte glycoprotein (αMOG), extracellular domain, amino acids 1-125 (UniProt Q63345)
# T1 sequence: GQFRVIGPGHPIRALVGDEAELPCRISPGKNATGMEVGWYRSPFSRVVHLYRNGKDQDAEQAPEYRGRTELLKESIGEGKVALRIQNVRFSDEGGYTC
# Sequence of UniProt P02688 (P02688 2-195): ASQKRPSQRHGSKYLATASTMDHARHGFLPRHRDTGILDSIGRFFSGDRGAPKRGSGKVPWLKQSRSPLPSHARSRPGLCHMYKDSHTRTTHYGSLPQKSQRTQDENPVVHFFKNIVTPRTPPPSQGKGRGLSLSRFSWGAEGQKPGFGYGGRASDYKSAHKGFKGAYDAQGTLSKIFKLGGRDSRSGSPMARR
compound,measurement,setting,value
"C=C(C)[C@H]1CN[C@H](C(=O)O)[C@H]1CC(=O)O [KA, kainic acid]",K6 mRNA in dorsal horn (DH) and ventral horn (VH) gray matter compared to controls,K6 mRNA in spinal cord,1.5 fold
same,K6 mRNA in spinal cord white matter compared to controls,K6 mRNA in spinal cord,2 fold
K6 (recombinant; species not stated where used),degradation on 7.5% SDS-PAGE,collagen type I,Collagen type I was degraded within 5 minutes of K6 addition
same,degradation on 7.5% SDS-PAGE,fibronectin,Fibronectin was partially degraded within 1 hour of K6 addition and was completely degraded by 24 hours
same,degradation on 7.5% SDS-PAGE,laminin,"Laminin was partially degraded by one hour after K6 addition, and was completely degraded by 16 hours"
recombinant rat K6 (r-K6),degradation on 16.5% Tricine SDS-PAGE,[1],"MBP was partially degraded by 10 minutes after addition of K6, and showed much greater levels of degradation at 30 minutes and 60 minutes"
same,degradation on 16.5% Tricine SDS-PAGE,[2],"αMOG was partially degraded by 1 hour after addition of K6, and was completely degraded by 4 hours"
